# Source: patent US20250277030A1, “ANTI-NAPI2B ANTIBODIES AND METHODS OF USE” (Zymeworks BC Inc., priority 2022, published 2025)
# B1: v29456: humanized anti-NaPi2b IgG1/kappa antibody H1L2; VH SEQ ID NO:24, VL SEQ ID NO:29 (antibody, V domains shown)
# VH: QVQLVQSGAEVKKPGASVKVSCKASGFTFTSYNVHWVRQAPGQGLEWMGAISPGNGDLSYAQKFQGRVTMTRDTSTSTVYMELSSLRSEDTAVYYCARGRTGMGAVDYWGQGTLVTVSS
# VL: DVQMTQSPSSLSASVGDRVTITCRASQDVYSYLNWYQQKPGKAVKLLIYYTSRLQSGVPSRFSGSGSGTDYTLTISSLQPEDFATYYCQQYNIFPWTFGQGTKLEIK
# modifications: v29452, v29456, v29460 VH (H1); v29453, v29454, v29455, v29456 VL (L2)
# How the values were obtained:
# ssDNA = test: NS-ELISA non-specific binding, ssDNA; conditions: mAb at 100 nM
# Experimental: The isoelectric point was measured by capillary isoelectric focusing (cIEF), the propensity for self-aggregation was measured by Affinity-capture self-interaction nanoparticle spectroscopy (AC-SINS) and non-specific binding was measured by NS-ELISA, as described below.
# NS-ELISA was used to measure the propensity of the antibodies to bind to a range of biomolecules to emulate the undesirable non-specific interactions to biological matrices in vivo as described below.
# NS-ELISA was carried out in Corning®96-well EIA/RIA Easy Wash™ Clear Flat Bottom Polystyrene High Bind Microplate coated overnight at 4° C. with 50 μL of Heparin (Sigma, H3149) diluted with 50 mM sodium carbonate pH 9.6 to a final concentration of 250 μg/mL. The plate was incubated for 2 days at room temperature, wells that were coated with heparin were not covered to allow air dry. […] Reactions were stopped after approximately 10 minutes by adding 100 μL of 1 M HCl to each well, and absorbance was read at 450 nm. Binding scores were calculated as the ratio of the ELISA signal of the antibody (antibody-treated) to the signal of a well containing buffer instead of the primary antibody (untreated). The cutoffs considered for each binding molecule (ssDNA, KLH, insulin, dsDNA and heparin) were internally calculated, based on the average of Zymeworks Inc. produced antibodies and antibodies benchmarks published in the literature.
# NCI-H441 cells = test: Internalization by flow cytometry in NCI-H441 cells; format: cell-based, human; conditions: antibody 10 nM
# Experimental: Briefly, antibodies were fluorescently labeled by coupling to a Fab fragment AF488 conjugate targeting anti-Human IgG Fe (Jackson Immuno Research Labs, West Grove, PA; Cat. No. 109-547-008) at a 1:1 molar ratio in PBS pH 7.4 (Thermo Fisher Scientific, Waltham, MA; Cat. No. 10010-023), for 24 hours at 4° C. Cells were seeded at 50,000 cells/well in RPMI 1640, ATCC modification (Thermo Fisher Scientific, Waltham, MA) supplemented with 10% fetal bovine serum (Thermo Fisher Scientific, Waltham, MA) in 48-well plates and incubated overnight under standard culturing conditions (37° C./5% CO2) to allow attachment. […] Following incubation, cells were dissociated, washed, and surface AF488 fluorescence was quenched using an anti-AF488 antibody (Life Technologies, Carlsbad, CA; Cat. No. A-11094) at 100 nM for 30 minutes at 4° C. […] (internalized fluorescence) was detected by flow cytometry on a BD LSRFortessa™ Cell Analyzer (BD Biosciences, Franklin Lake, NJ) with 1,000 minimum events collected per well. The AF488/FITC-A GeoMean (fluorescence signal geometric mean, proportional to anti-Human Fab AF488 labelling) was calculated for the live single cell population using FlowJo™ Version 10.8.1 (BD Biosciences, Franklin Lake, NJ) and plotted using GraphPad Prism Version 9 (GraphPad Software, San Diego, CA).
molecule,measurement,setting,value
B1,"NS-ELISA binding score (ratio of signal between antibody-treated and untreated), ssDNA",ssDNA,1.06
same,Internalized Fluorescence Fold-Over Palivizumab,"NCI-H441 cells; NCI-H441, 5 hrs",2.4 fold
same,Internalized Fluorescence Fold-Over Palivizumab,"NCI-H441 cells; NCI-H441, 24 hrs",4.0 fold
